From PMC10572819 come the findings set out here.

Data set [1] in a line: Western blot, HEK-293 co-transfected with BAP31. The note with it: glycan lost; control: WT-EpCAM. In general terms: In western blotting, separated proteins are transferred to a membrane and probed.
Data set [2] in a line: Western blot, HEK-293 with BAP31 siRNA. The note with it: glycan lost; control: WT-EpCAM.

B1: epithelial cell-adhesion molecule (EpCAM): N76/111/198A (protein)
parent chain: MAPPQVLAFGLLLAAATATFAAAQEECVCENYKLAVNCFVNNNRQCQCTSVGAQNTVICSKLAAKCLVMKAEMNGSKLGRRAKPEGALQNNDGLYDPDCDESGLFKAKQCNGTSMCWCVNTAGVRRTDKDTEITCSERVRTYWIIIELKHKAREKPYDSKSLRTALQKEITTRYQLDPKFITSILYENNVITIDLVQNSSQKTQNDVDIADVAYYFEKDVKGESLFHSKKMDLTVNGEQLDLDPGQTLIYYVDEKAPEFSMQGLKAGVIAVIVVVVIAVVAGIVVLVISRKKRMAKYEKAEIKEMGEMHRELNA
B1: the “other: rise in protein level on BAP31 overexpression” value in data set [1] is “abolishes”. Besides, the “other: fall in protein level on BAP31 knockdown” value in data set [2] is “abolishes”.
